Reference: patent US20060210984A1

Tests used:
IL-8 (human) [1] = target: IL-8 (human) (UniProt P10145); assay: sandwich microarray in flow cell, chemiluminescence, cytokine 1 ng/ml; Chip 1
IL-8 (human) [2] = target: IL-8 (human) (UniProt P10145); assay: sandwich microarray in flow cell, chemiluminescence, cytokine 1 ng/ml; Chip 2
IL-8 (human) [3] = target: IL-8 (human) (UniProt P10145); assay: sandwich microarray in flow cell, chemiluminescence, cytokine 1 ng/ml; Chip 3
IL-8 (human) [4] = target: IL-8 (human) (UniProt P10145); assay: sandwich microarray in flow cell, chemiluminescence, cytokine 1 ng/ml; Chip 4
IL-8 (human) [5] = target: IL-8 (human) (UniProt P10145); assay: sandwich microarray in flow cell, chemiluminescence, cytokine 1 ng/ml; Chip 5
IL-8 (human) [6] = target: IL-8 (human) (UniProt P10145); assay: sandwich microarray in flow cell, chemiluminescence, cytokine 1 ng/ml; AVG of Chips 1-5
IL-8 (human) [7] = target: IL-8 (human) (UniProt P10145); assay: sandwich microarray in flow cell, chemiluminescence, cytokine 1 ng/ml, divided by chip-specific PNA calibration factor; Chip 1
IL-8 (human) [8] = target: IL-8 (human) (UniProt P10145); assay: sandwich microarray in flow cell, chemiluminescence, cytokine 1 ng/ml, divided by chip-specific PNA calibration factor; Chip 2
IL-8 (human) [9] = target: IL-8 (human) (UniProt P10145); assay: sandwich microarray in flow cell, chemiluminescence, cytokine 1 ng/ml, divided by chip-specific PNA calibration factor; Chip 3
IL-8 (human) [10] = target: IL-8 (human) (UniProt P10145); assay: sandwich microarray in flow cell, chemiluminescence, cytokine 1 ng/ml, divided by chip-specific PNA calibration factor; Chip 4
IL-8 (human) [11] = target: IL-8 (human) (UniProt P10145); assay: sandwich microarray in flow cell, chemiluminescence, cytokine 1 ng/ml, divided by chip-specific PNA calibration factor; Chip 5
IL-8 (human) [12] = target: IL-8 (human) (UniProt P10145); assay: sandwich microarray in flow cell, chemiluminescence, cytokine 1 ng/ml, divided by chip-specific PNA calibration factor; AVG of Chips 1-5
IL-10 (human) [13] = target: IL-10 (human) (UniProt P22301); assay: sandwich microarray in flow cell, chemiluminescence, cytokine 1 ng/ml; Chip 1
IL-10 (human) [14] = target: IL-10 (human) (UniProt P22301); assay: sandwich microarray in flow cell, chemiluminescence, cytokine 1 ng/ml; Chip 2
IL-10 (human) [15] = target: IL-10 (human) (UniProt P22301); assay: sandwich microarray in flow cell, chemiluminescence, cytokine 1 ng/ml; Chip 3
IL-10 (human) [16] = target: IL-10 (human) (UniProt P22301); assay: sandwich microarray in flow cell, chemiluminescence, cytokine 1 ng/ml; Chip 4
IL-10 (human) [17] = target: IL-10 (human) (UniProt P22301); assay: sandwich microarray in flow cell, chemiluminescence, cytokine 1 ng/ml; Chip 5
IL-10 (human) [18] = target: IL-10 (human) (UniProt P22301); assay: sandwich microarray in flow cell, chemiluminescence, cytokine 1 ng/ml; AVG of Chips 1-5
IL-10 (human) [19] = target: IL-10 (human) (UniProt P22301); assay: sandwich microarray in flow cell, chemiluminescence, cytokine 1 ng/ml, divided by chip-specific PNA calibration factor; Chip 1
IL-10 (human) [20] = target: IL-10 (human) (UniProt P22301); assay: sandwich microarray in flow cell, chemiluminescence, cytokine 1 ng/ml, divided by chip-specific PNA calibration factor; Chip 2
IL-10 (human) [21] = target: IL-10 (human) (UniProt P22301); assay: sandwich microarray in flow cell, chemiluminescence, cytokine 1 ng/ml, divided by chip-specific PNA calibration factor; Chip 3
IL-10 (human) [22] = target: IL-10 (human) (UniProt P22301); assay: sandwich microarray in flow cell, chemiluminescence, cytokine 1 ng/ml, divided by chip-specific PNA calibration factor; Chip 4
IL-10 (human) [23] = target: IL-10 (human) (UniProt P22301); assay: sandwich microarray in flow cell, chemiluminescence, cytokine 1 ng/ml, divided by chip-specific PNA calibration factor; Chip 5
IL-10 (human) [24] = target: IL-10 (human) (UniProt P22301); assay: sandwich microarray in flow cell, chemiluminescence, cytokine 1 ng/ml, divided by chip-specific PNA calibration factor; AVG of Chips 1-5
IL-12p40 (human) [25] = target: IL-12p40 (human) (UniProt P29460); assay: sandwich microarray in flow cell, chemiluminescence, cytokine 1 ng/ml; Chip 1
IL-12p40 (human) [26] = target: IL-12p40 (human) (UniProt P29460); assay: sandwich microarray in flow cell, chemiluminescence, cytokine 1 ng/ml; Chip 2
IL-12p40 (human) [27] = target: IL-12p40 (human) (UniProt P29460); assay: sandwich microarray in flow cell, chemiluminescence, cytokine 1 ng/ml; Chip 3
IL-12p40 (human) [28] = target: IL-12p40 (human) (UniProt P29460); assay: sandwich microarray in flow cell, chemiluminescence, cytokine 1 ng/ml; Chip 4
IL-12p40 (human) [29] = target: IL-12p40 (human) (UniProt P29460); assay: sandwich microarray in flow cell, chemiluminescence, cytokine 1 ng/ml; Chip 5
IL-12p40 (human) [30] = target: IL-12p40 (human) (UniProt P29460); assay: sandwich microarray in flow cell, chemiluminescence, cytokine 1 ng/ml; AVG of Chips 1-5
IL-12p40 (human) [31] = target: IL-12p40 (human) (UniProt P29460); assay: sandwich microarray in flow cell, chemiluminescence, cytokine 1 ng/ml, divided by chip-specific PNA calibration factor; Chip 1
IL-12p40 (human) [32] = target: IL-12p40 (human) (UniProt P29460); assay: sandwich microarray in flow cell, chemiluminescence, cytokine 1 ng/ml, divided by chip-specific PNA calibration factor; Chip 2
IL-12p40 (human) [33] = target: IL-12p40 (human) (UniProt P29460); assay: sandwich microarray in flow cell, chemiluminescence, cytokine 1 ng/ml, divided by chip-specific PNA calibration factor; Chip 3
IL-12p40 (human) [34] = target: IL-12p40 (human) (UniProt P29460); assay: sandwich microarray in flow cell, chemiluminescence, cytokine 1 ng/ml, divided by chip-specific PNA calibration factor; Chip 4
IL-12p40 (human) [35] = target: IL-12p40 (human) (UniProt P29460); assay: sandwich microarray in flow cell, chemiluminescence, cytokine 1 ng/ml, divided by chip-specific PNA calibration factor; Chip 5
IL-12p40 (human) [36] = target: IL-12p40 (human) (UniProt P29460); assay: sandwich microarray in flow cell, chemiluminescence, cytokine 1 ng/ml, divided by chip-specific PNA calibration factor; AVG of Chips 1-5

Sequence of UniProt P10145 (P10145 28-99 limits assumed): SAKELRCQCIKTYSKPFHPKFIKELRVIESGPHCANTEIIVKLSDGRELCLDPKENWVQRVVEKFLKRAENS
Sequence of UniProt P22301 (P22301 19-178 limits assumed): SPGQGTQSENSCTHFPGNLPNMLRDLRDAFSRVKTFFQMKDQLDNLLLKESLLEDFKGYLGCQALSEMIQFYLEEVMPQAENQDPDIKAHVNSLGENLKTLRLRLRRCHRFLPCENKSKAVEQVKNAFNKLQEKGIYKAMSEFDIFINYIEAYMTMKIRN
Sequence of UniProt P29460 (P29460 23-328 limits assumed): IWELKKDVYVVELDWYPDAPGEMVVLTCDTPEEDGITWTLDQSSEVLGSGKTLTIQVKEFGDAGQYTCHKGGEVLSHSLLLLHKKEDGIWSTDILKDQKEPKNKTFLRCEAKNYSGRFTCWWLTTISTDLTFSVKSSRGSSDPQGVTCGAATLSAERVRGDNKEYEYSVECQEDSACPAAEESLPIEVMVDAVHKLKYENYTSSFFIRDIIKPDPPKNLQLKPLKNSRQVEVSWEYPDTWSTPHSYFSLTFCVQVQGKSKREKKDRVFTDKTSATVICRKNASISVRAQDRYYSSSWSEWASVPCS

Q: Which chemiluminescent spot intensity (Un-Calibrated Data) (IL-8 (human) [1]) does the source give for “MAb IL-8 (monoclonal capture antibody of the anti-human IL-8 OptEIA matched pair, BD Biosciences-Pharmingen)” here?
A: 1760

Q: And the chemiluminescent spot intensity (Un-Calibrated Data) (IL-8 (human) [2])?
A: 804

Q: What about the chemiluminescent spot intensity (Un-Calibrated Data) (IL-8 (human) [3]) of the same substance?
A: 3100

Q: What about the chemiluminescent spot intensity (Un-Calibrated Data) (IL-8 (human) [4]) of the same substance?
A: 1320

Q: And the chemiluminescent spot intensity (Un-Calibrated Data) (IL-8 (human) [5])?
A: 905

Q: What about the chemiluminescent spot intensity (Un-Calibrated Data) (IL-8 (human) [6]) of the same substance?
A: 1580

Q: And the chemiluminescent spot intensity (Calibrated Data) (IL-8 (human) [7])?
A: 2960

Q: And the chemiluminescent spot intensity (Calibrated Data) (IL-8 (human) [8])?
A: 2750

Q: And the chemiluminescent spot intensity (Calibrated Data) (IL-8 (human) [9])?
A: 3100

Q: And the chemiluminescent spot intensity (Calibrated Data) (IL-8 (human) [10])?
A: 2900

Q: What about the chemiluminescent spot intensity (Calibrated Data) (IL-8 (human) [11]) of the same substance?
A: 2790

Q: And the chemiluminescent spot intensity (Calibrated Data) (IL-8 (human) [12])?
A: 2900

Q: For “MAb IL-10 (monoclonal capture antibody of the anti-human IL-10 OptEIA matched pair, BD Biosciences-Pharmingen)”, which chemiluminescent spot intensity (Un-Calibrated Data) (IL-10 (human) [13]) is on record?
A: 788

Q: What about the chemiluminescent spot intensity (Un-Calibrated Data) (IL-10 (human) [14]) of the same substance?
A: 389

Q: And the chemiluminescent spot intensity (Un-Calibrated Data) (IL-10 (human) [15])?
A: 1360

Q: And the chemiluminescent spot intensity (Un-Calibrated Data) (IL-10 (human) [16])?
A: 508

Q: And the chemiluminescent spot intensity (Un-Calibrated Data) (IL-10 (human) [17])?
A: 414

Q: And the chemiluminescent spot intensity (Un-Calibrated Data) (IL-10 (human) [18])?
A: 691

Q: And the chemiluminescent spot intensity (Calibrated Data) (IL-10 (human) [19])?
A: 1320

Q: What about the chemiluminescent spot intensity (Calibrated Data) (IL-10 (human) [20]) of the same substance?
A: 1330

Q: What about the chemiluminescent spot intensity (Calibrated Data) (IL-10 (human) [21]) of the same substance?
A: 1360

Q: What about the chemiluminescent spot intensity (Calibrated Data) (IL-10 (human) [22]) of the same substance?
A: 1120

Q: And the chemiluminescent spot intensity (Calibrated Data) (IL-10 (human) [23])?
A: 1280

Q: And the chemiluminescent spot intensity (Calibrated Data) (IL-10 (human) [24])?
A: 1280

Q: Which results are given for “MAb IL-12p40 (monoclonal capture antibody of the anti-human IL-12p40 OptEIA matched pair, BD Biosciences-Pharmingen)”?
A: chemiluminescent spot intensity (Un-Calibrated Data) (IL-12p40 (human) [25]): 179; chemiluminescent spot intensity (Un-Calibrated Data) (IL-12p40 (human) [26]): 79; chemiluminescent spot intensity (Un-Calibrated Data) (IL-12p40 (human) [27]): 312; chemiluminescent spot intensity (Un-Calibrated Data) (IL-12p40 (human) [28]): 125; chemiluminescent spot intensity (Un-Calibrated Data) (IL-12p40 (human) [29]): 87; chemiluminescent spot intensity (Un-Calibrated Data) (IL-12p40 (human) [30]): 156; chemiluminescent spot intensity (Calibrated Data) (IL-12p40 (human) [31]): 300; chemiluminescent spot intensity (Calibrated Data) (IL-12p40 (human) [32]): 270; chemiluminescent spot intensity (Calibrated Data) (IL-12p40 (human) [33]): 312; chemiluminescent spot intensity (Calibrated Data) (IL-12p40 (human) [34]): 275; chemiluminescent spot intensity (Calibrated Data) (IL-12p40 (human) [35]): 268; chemiluminescent spot intensity (Calibrated Data) (IL-12p40 (human) [36]): 285
